Data taken from PMC5861430 (Nucleic Acids Research, 2018).

T1: GST-APE2 (Xenopus laevis, UniProt Q6DDT4 1-517)
T1 sequence (looked up): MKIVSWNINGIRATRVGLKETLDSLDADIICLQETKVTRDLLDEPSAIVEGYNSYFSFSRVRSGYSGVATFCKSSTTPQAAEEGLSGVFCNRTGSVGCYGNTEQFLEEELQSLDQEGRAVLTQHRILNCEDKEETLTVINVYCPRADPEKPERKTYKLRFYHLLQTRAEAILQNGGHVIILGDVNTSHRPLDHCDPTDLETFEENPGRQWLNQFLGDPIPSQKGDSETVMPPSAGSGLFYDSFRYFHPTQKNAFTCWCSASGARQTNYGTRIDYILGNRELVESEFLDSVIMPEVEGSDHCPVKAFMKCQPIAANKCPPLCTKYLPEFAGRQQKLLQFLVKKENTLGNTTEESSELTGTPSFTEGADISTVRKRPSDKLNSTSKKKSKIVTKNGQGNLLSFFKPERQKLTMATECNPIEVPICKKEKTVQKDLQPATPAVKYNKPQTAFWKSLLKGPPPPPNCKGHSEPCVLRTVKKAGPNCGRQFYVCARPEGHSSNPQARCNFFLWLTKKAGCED

B1: WT His-tagged PCNA (natural protein, Xenopus laevis, UniProt P18248 1-261, looked up)
chain: MFEARLVQGSILKKVLEALKDLIDEACWDITSSGISLQSMDSSHVSLVQLTLRSDGFDTYRCDRNQSIGVKMSSMSKILKCAASDDIITLRAEDNADTVTMVFESPNQEKVSDYEMKLMDLDVEQLGIPEQEYSCVIKMPSGEFARICRDLSQIGDAVVISCAKDGVKFSASGELGTGNVKLSQTSNVDKEEEAVTIEMNEPVQLTFALRYLNFFTKATPLSPTVILSMSADIPLVVEYKIADMEHVKYYLAPKIEDEEAS

Tests used:
Assay in all cases: pull-down
GST-APE2 = target: T1, GST-APE2
WT His-tagged PCNA = target: B1
[1] = target: PK PCNA (P253A-K254A PCNA) (Xenopus laevis, UniProt P18248 1-261, P253A | K254A)

binding result (GST-APE2)	binding result (WT His-tagged PCNA)	binding result [1]	Binder
binds			B1
	binds	binds	GST-APE2-ZF (domain or fragment, Xenopus laevis, UniProt Q6DDT4 456-517, looked up) GPPPPPNCKGHSEPCVLRTVKKAGPNCGRQFYVCARPEGHSSNPQARCNFFLWLTKKAGCED
